Laboratory results: patent US12214008B2, “Protein interfaces” (SyntheX, Inc., priority 2016, dated 2025)
Changes are numbered by the printed parent chain.

Legend:
Format in all cases: binding
H.sapiens Rad51 = target: T1, H.sapiens Rad51 (Homo sapiens, UniProt Q06609); test: Y2H assay RAD51/SEQ ID NO.: 5 pair; design: key: cells having the interaction would survive (+); cells not having the interaction would die (−) on selective media (−ADE, −HIS)
T1 construct: expressed in transfected cells
T1 sequence (Q06609 1-339): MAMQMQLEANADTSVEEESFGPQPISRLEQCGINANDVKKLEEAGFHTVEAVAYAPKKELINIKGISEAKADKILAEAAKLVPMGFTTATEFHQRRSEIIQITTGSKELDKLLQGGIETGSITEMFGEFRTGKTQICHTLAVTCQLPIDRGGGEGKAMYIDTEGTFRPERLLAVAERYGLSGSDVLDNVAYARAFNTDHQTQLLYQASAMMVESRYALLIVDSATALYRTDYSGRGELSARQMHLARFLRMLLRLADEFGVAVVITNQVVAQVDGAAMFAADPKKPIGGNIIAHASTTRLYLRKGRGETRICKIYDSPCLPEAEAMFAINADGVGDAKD
Method: (§1) RAD51-binding peptides were tested for ability to bind RAD51 of several different species using a “conventional” Y2H assay, where interaction between the two-hybrid pair drove expression of ADE2 and HIS genes.

D.rerio Rad51 = test: Y2H assay RAD51/SEQ ID NO.: 5 pair; design: key: cells having the interaction would survive (+); cells not having the interaction would die (−) on selective media (−ADE, −HIS)
Method: as §1

C.albicans Rad51 = test: Y2H assay RAD51/SEQ ID NO.: 5 pair; design: key: cells having the interaction would survive (+); cells not having the interaction would die (−) on selective media (−ADE, −HIS)
Method: as §1

S.pombe Rad51 = target: T2, S.pombe Rad51 (Schizosaccharomyces pombe, UniProt P36601); test: Y2H assay RAD51/SEQ ID NO.: 5 pair; design: key: cells having the interaction would survive (+); cells not having the interaction would die (−) on selective media (−ADE, −HIS)
T2 construct: expressed in transfected cells
T2 sequence (P36601 whole entry, looked up): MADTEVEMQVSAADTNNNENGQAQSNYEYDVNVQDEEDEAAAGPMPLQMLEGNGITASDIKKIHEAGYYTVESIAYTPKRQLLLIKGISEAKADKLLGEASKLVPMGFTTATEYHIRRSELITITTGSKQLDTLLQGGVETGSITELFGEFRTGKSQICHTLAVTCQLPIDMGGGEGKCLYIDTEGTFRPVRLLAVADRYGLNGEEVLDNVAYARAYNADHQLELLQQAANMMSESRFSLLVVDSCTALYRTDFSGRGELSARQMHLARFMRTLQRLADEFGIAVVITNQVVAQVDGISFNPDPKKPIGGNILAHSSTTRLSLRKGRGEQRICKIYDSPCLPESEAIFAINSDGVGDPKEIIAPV
Method: (§2) RAD51-binding peptides were tested for ability to bind RAD51 of several different species using a “conventional” Y2H assay, where interaction between the two-hybrid pair drove expression of ADE2 and HIS genes. In this Y2H assay the two-hybrid pair was RAD51 and the compound 5 peptide sequence (SEQ ID NO.: 5), so that cells having the interaction would survive (+) and cells not having the interaction would die (−) on selective media (−ADE, −HIS).

K.pastoris Rad51 = test: Y2H assay RAD51/SEQ ID NO.: 5 pair; design: key: cells having the interaction would survive (+); cells not having the interaction would die (−) on selective media (−ADE, −HIS)
Method: as §2

G.gallus Rad51 = target: T3, G.gallus Rad51 (Gallus gallus, UniProt P37383); test: Y2H assay RAD51/SEQ ID NO.: 5 pair; design: key: cells having the interaction would survive (+); cells not having the interaction would die (−) on selective media (−ADE, −HIS)
T3 construct: expressed in transfected cells
T3 sequence (P37383 1-339): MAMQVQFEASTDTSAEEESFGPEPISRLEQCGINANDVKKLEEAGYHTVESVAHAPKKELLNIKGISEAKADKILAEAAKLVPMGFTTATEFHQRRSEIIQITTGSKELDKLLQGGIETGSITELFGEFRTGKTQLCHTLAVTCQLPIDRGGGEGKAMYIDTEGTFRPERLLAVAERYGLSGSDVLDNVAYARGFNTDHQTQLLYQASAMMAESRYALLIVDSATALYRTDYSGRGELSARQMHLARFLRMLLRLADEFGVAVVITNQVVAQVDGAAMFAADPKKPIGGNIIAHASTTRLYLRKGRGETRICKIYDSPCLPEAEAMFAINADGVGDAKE
Method: as §2

K.lactis Rad51 = test: Y2H assay RAD51/SEQ ID NO.: 5 pair; design: key: cells having the interaction would survive (+); cells not having the interaction would die (−) on selective media (−ADE, −HIS)
Method: as §2

S.cerevisiae Rad51 = target: T4, S.cerevisiae Rad51 (Saccharomyces cerevisiae, UniProt P25454); test: Y2H assay RAD51/SEQ ID NO.: 5 pair; design: key: cells having the interaction would survive (+); cells not having the interaction would die (−) on selective media (−ADE, −HIS)
T4 construct: expressed in transfected cells
Method: as §2

Rad51 (S208E; A209D) = target: T5, Rad51 (S208E; A209D) (Homo sapiens, UniProt Q06609, A209D/S208E); test: Y2H assay, human RAD51 mutants; design: key: (+) denotes a successful interaction between the two Y2H baits; (−) denotes a lack of interaction
T5 construct: expressed in transfected cells
T5 sequence (Q06609 1-339 S208E/A209D): T1 sequence (Q06609 1-339) with S208E, A209D
Method: The ability of peptides to bind human RAD51 with various mutations was then tested by Y2H assay. […] While mutations affecting BRCA2 binding had no effect on peptide binding, mutations that affected RAD51-AP1 binding did disrupt peptide binding. As these mutations were at residues 202, 205, and 206, they were consistent with the previous fusion data showing binding somewhere in the 190-218 region, and indicated the peptide SEQ ID NO.: 5 contacts at least residues 202, 205, and 206 of RAD51.

T4 sequence (P25454 whole entry): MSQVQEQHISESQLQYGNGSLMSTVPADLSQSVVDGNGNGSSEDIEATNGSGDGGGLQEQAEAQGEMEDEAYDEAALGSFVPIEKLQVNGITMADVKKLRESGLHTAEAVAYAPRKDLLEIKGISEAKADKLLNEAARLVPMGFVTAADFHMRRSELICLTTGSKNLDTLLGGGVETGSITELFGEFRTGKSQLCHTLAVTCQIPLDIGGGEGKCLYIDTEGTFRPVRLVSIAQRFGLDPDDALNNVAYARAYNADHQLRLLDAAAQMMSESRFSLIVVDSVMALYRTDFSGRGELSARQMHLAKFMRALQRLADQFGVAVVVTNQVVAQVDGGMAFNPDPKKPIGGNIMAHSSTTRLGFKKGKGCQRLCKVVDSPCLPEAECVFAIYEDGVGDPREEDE

KRRRRRRRKRLGVRLRVSRML [SEQ ID NO.: 5]
Compound 5 Sequence Binding (H.sapiens Rad51): +
Compound 5 Sequence Binding (D.rerio Rad51): +
Compound 5 Sequence Binding (C.albicans Rad51): +
Compound 5 Sequence Binding (S.pombe Rad51): +
Compound 5 Sequence Binding (K.pastoris Rad51): +
Compound 5 Sequence Binding (G.gallus Rad51): +
Compound 5 Sequence Binding (K.lactis Rad51): −
Compound 5 Sequence Binding (S.cerevisiae Rad51): −
Y2H interaction with SEQ ID NO.: 5 (Rad51 (S208E; A209D)): +
